The target in one test is Pap1-GST (S. cerevisiae, UniProt P29468 1-568). Nature of the test: pull-down.
The target of test [1] is T1, Pap1-His6 (S. cerevisiae, UniProt P29468 1-568). Nature of the test: pull-down.
The target in test [2] is T1, Pap1-His6. Description: co-IP.
A further test deals with ΔN-Pap1-His6 (S. cerevisiae, UniProt P29468 19-568). Nature of the test: co-IP.
The target of a further test is ΔN-Pap1-GST (S. cerevisiae, UniProt P29468 19-568). Description: pull-down.
Chain of ΔN-Pap1-GST (P29468 19-568, stated change not applied): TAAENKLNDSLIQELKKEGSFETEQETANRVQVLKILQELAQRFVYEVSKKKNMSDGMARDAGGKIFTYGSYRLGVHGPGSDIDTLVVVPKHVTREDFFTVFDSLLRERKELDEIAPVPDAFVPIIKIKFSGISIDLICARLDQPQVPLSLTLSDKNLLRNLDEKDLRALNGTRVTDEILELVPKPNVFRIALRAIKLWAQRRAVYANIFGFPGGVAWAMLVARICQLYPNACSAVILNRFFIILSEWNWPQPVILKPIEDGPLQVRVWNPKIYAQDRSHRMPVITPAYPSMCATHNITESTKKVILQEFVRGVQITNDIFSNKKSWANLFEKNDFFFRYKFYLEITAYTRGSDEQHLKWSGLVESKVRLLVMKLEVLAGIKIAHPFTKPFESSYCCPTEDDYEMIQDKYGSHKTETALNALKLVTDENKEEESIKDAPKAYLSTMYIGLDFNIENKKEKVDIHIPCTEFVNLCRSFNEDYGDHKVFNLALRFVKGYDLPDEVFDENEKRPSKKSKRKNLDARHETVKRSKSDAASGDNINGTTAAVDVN

Chain of Pap1-GST (P29468 whole entry): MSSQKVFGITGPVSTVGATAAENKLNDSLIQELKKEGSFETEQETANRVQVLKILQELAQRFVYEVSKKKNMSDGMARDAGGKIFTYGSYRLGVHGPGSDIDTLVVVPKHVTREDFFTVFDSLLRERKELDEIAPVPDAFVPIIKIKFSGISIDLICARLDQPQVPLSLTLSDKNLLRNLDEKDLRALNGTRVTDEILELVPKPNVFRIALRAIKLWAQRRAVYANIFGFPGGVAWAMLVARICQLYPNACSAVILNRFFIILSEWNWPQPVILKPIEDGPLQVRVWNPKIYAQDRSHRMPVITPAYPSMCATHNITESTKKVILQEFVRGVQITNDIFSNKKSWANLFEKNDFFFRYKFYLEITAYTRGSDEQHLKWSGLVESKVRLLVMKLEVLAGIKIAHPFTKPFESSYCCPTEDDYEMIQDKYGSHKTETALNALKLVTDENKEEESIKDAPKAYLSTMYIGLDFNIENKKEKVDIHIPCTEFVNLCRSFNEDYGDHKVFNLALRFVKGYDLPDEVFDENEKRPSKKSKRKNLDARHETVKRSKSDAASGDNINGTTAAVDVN
T1 sequence (P29468 whole entry): as above
Chain of ΔN-Pap1-His6 (P29468 19-568, stated change not applied): as the sequence (P29468 19-568, stated change not applied) above

B1: Nab6-V5-His6 (the last 210 amino acids) (domain or fragment, S. cerevisiae, UniProt Q03735 925-1134, looked up)
chain: GGGETGTANNTGHENESELEAENENGNETGSFGGLGLAVASSDVKRATSDETDYEDIFNKSSGSSDSSSDVEVIMHSPSDPEYALKSQTLRSSSQTVINSKRPVKIEDEEEAVGMSQLNYRSSLRQAPPRAPSTLSYNHSKNNETPMQDIFTNGETANNRKKKRGSFARHRTIPGSDVMAQYLAQVQHSTFMYAANILGASAEDNTHPDE
For the molecule B1, the binding result with Pap1-GST was “binds”.

B2: GST-Pta1 (1–300) (domain or fragment, S. cerevisiae, UniProt Q01329 1-300, looked up)
chain: MSSAEMEQLLQAKTLAMHNNPTEMLPKVLETTASMYHNGNLSKLKLPLAKFFTQLVLDVVSMDSPIANTERPFIAAQYLPLLLAMAQSTADVLVYKNIVLIMCASYPLVLDLVAKTSNQEMFDQLCMLKKFVLSHWRTAYPLRATVDDETDVEQWLAQIDQNIGVKLATIKFISEVVLSQTKSPSGNEINSSTIPDNHPVLNKPALESEAKRLLDMLLNYLIEEQYMVSSVFIGIINSLSFVIKRRPQTTIRILSGLLRFNVDAKFPLEGKSDLNYKLSKRFVERAYKNFVQFGLKNQII
For B2, the binding result with Pap1-His6 [1] is recorded as “binds”.

B3: Fip1(1–206) (domain or fragment, S. cerevisiae, UniProt P45976 1-206, looked up)
chain: MSSSEDEDDKFLYGSDSELALPSSKRSRDDEADAGASSNPDIVKRQKFDSPVEETPATARDDRSDEDIYSDSSDDDSDSDLEVIISLGPDPTRLDAKLLDSYSTAATSSSKDVISVATDVSNTITKTSDERLITEGEANQGVTATTVKATESDGNVPKAMTGSIDLDKEGIFDSVGITTIDPEVLKEKPWRQPGANLSDYFNYGFN
As to B3, the binding result with Pap1-His6 [2], in the test with ΔN-Pap1-His6, with Pap1-GST and in the test with ΔN-Pap1-GST was “binds” each time.

B4: Sub1-V5-His6 (natural protein, S. cerevisiae, UniProt P54000 1-292, looked up)
chain: MSYYNRYRNKRRSDNGGGNLSNSNNNNGGMPSGLSASDAIFDLGKNKRVTVRQFRNINLIDIREYYLDSSTGEMKPGKKGISLTEDLYDELLKHRLNIDEALRRLGSKRPKTKMVRLLSDDEYEDDNNNDSTNNDKDKNGKDKNSPKKRREDKSKASNESHDLEPRSKKKKPAPPTLLPHEENIQNAEREANATLIIPGQAGRKQQEERKQKEKEEAEEAKAKAVAEQEKEAKAKEKIAEPEPEPVPTLQAKKEDIVSNINESKDANSSDEEFAQSLEAEMNKAEDDISEEE
For the molecule B4, in the test with Pap1-GST, the binding result is “binds”.

The values above are taken from publication PMC3587332 (FEBS letters, 2012).
